Consider eight molecules from PMC7409301, “Natural Killer Cell Activation Receptor NKp30 Oligomerization Depends on Its N-Glycosylation” (Cancers, 2020).

The target in data set [1] is B7-H6 C212S extracellular portion, glycosylation state not told in the text for the experiment (UniProt Q68D85). The data set can be described thus: SPR; as a7 but analyte is the oligomeric fraction of NKp30_Stalk; increase in affinity put down to the avidity of the oligomers.
Data set [2] has the same target. Kind of data set: SPR; Biacore T200; biotinylated B7-H6 on streptavidin sensor; analyte NKp30_LBD, deglycosylated NKp30_Stalk or the monomeric fraction of NKp30_Stalk, 1 nM to 16.3 μM, single cycle kinetics; 10 mM HEPES pH 7.5, 150 mM NaCl, 1 mg/mL dextran, 0.05% Tween-20; steady-state responses fitted with AB hetero-association model.
For data set [3], the target named is NKp30_Stalk, deglycosylated with endoglycosidase Endo F1 (human) (UniProt O14931). Kind of data set: SPR. Conditions: domain or fragment.
Data set [4] deals with NKp30_Stalk, uniform simple N-glycans (expressed in HEK293S GnTI^−) (human) (UniProt O14931). Kind of data set: SPR; NKp30_Stalk monomer. Conditions: domain or fragment.
Data set [5] addresses NKp30_Stalk, wild-type N-glycosylation (expressed in HEK293T) (human) (UniProt O14931). The data set can be described thus: SPR; NKp30_Stalk oligomer. The following applies: domain or fragment.
The target of data set [6] is NKp30_Stalk, uniform simple N-glycans (expressed in HEK293S GnTI^−) (human) (UniProt O14931). The data set can be described thus: SPR; NKp30_Stalk oligomer. The following applies: domain or fragment.
In data set [7] the target is NKp30_Stalk, wild-type N-glycosylation (expressed in HEK293T) (human) (UniProt O14931). Kind of data set: SPR; NKp30_Stalk monomer. Conditions: domain or fragment.
In data set [8] the target is NKp30_Stalk, uniform simple N-glycans (expressed in HEK293S GnTI^−) (human) (UniProt O14931). Kind of data set: SPR; NKp30_Stalk monomer. Conditions: domain or fragment. The source holds these as a separate data set.
Data set [9] concerns the target NKp30_Stalk, wild-type N-glycosylation (expressed in HEK293T) (human) (UniProt O14931). Kind of data set: AUC; sedimentation velocity of glycosylated and deglycosylated NKp30_Stalk oligomers, 20 μM, 20 °C, 10 mM HEPES pH 7.5, 150 mM NaCl, 10 mM NaN3, 36,000 or 48,000 rpm.
Data set [10] deals with NKp30_LBD (Ligand Binding Domain), glycosylation state not told in the text for the experiment (human) (UniProt O14931). The data set can be described thus: AUC; NKp30_LBD at high concentration, 20 mg/mL, 50,000 rpm, 3 mm centerpiece, interference optics, nonideal c(s) model.
The nature of the next data set: SEC-MALS. Conditions: glycan lost; control: glycosylated NKp30_Stalk (HEK293T or HEK293S GnTI−).
Data set [11] can be described thus: sedimentation velocity AUC. The following applies: glycan lost; control: NKp30_Stalk from HEK293S GnTI− (uniform glycans).
Data set [12] has as its target NKp30_Stalk, glycosylated, type of N-glycans not told in the text for the experiment (human) (UniProt O14931). Kind of data set: AUC; sedimentation velocity of the monomeric fraction of glycosylated NKp30_Stalk, of B7-H6 and of their equimolar mixture, 20 μM, 20 °C, HEPES buffer.
For data set [13], the target named is NKp30_Stalk, wild-type N-glycosylation (expressed in HEK293T) (human) (UniProt O14931). The data set can be described thus: ITC; as a9 but the oligomeric fraction of NKp30_Stalk in the cell.
Data set [14] deals with the molecule itself. The data set can be described thus: AUC; sedimentation velocity of wild-type B7-H6 at 0.5 mg/mL, c(s) distribution.
Data set [15] can be described thus: solubility during deglycosylation in HEPES buffer. Conditions: glycan lost; control: glycosylated B7-H6 (HEK293S GnTI−).

Several values for one entry are separate records, joined by “and”; a condition that tells them apart may be missing. Equal values may be shown once.

Take “NKp30_Stalk, glycosylated, type of N-glycans not told in the text for the experiment (from UniProt O14931 19-135) (domain or fragment)”: in data set [1], the fold stronger binding than NKp30 LBD amounted to 10 fold and the fold stronger binding than the NKp30 Stalk monomeric fraction worked out at 4 fold. The same molecule had a fold higher affinity than NKp30 LBD in data set [2] of 2 fold.
In the case of “B7-H6 C212S extracellular portion, uniform simple N-glycans (expressed in HEK293S GnTI^−) (from UniProt Q68D85 25-245)”, the Kd amounted to 350 nM in [3]; 370 nM in [4]; 90 nM in data set [5]; 70 nM in data set [6]; 380 nM in [7]; 350 nM in data set [8].
For “NKp30_Stalk, wild-type N-glycosylation (expressed in HEK293T) (from UniProt O14931 19-135) (domain or fragment)”, the stoichiometry N in data set [9] was 8 units and 16 units.
In data set [10], “NKp30_LBD (Ligand Binding Domain), glycosylation state not told in the text for the experiment (from UniProt O14931 19-130) (domain or fragment)” returned a stoichiometry N of 2.

B1: NKp30: Endo F1 (protein)
parent chain: MAWMLLLILIMVHPGSCALWVSQPPEIRTLEGSSAFLPCSFNASQGRLAIGSVTWFRDEVVPGKEVRNGTPEFRGRLAPLASSRFLHDHQAELHIRDVRGHDASIYVCRVEVLGLGVGTGNGTRLVVEKEHPQLGAGTVLLLRAGFYAVSFLSVAVGSTVYYQGKCLTWKGPRRQLPAVVPAPLPPPCGSSAHLLPPVPGG
Turning to B1, the oligomerisation entry (in “SEC-MALS”; in data set [11]) was “abolishes” each time.

B2: B7-H6 C212S extracellular portion, glycosylation state not told in the text for the experiment (domain or fragment)
chain: DLKVEMMAGGTQITPLNDNVTIFCNIFYSQPLNITSMGITWFWKSLTFDKEVKVFEFFGDHQEAFRPGAIVSPWRLKSGDASLRLPGIQLEEAGEYRCEVVVTPLKAQGTVQLEVVASPASRLLLDQVGMKENEDKYMCESSGFYPEAINITWEKQTQKFPHPIEISEDVITGPTIKNMDGTFNVTSSLKLNSSQEDPGTVYQCVVRHASLHTPLRSNFTL
modifications: glycosylation state marked only in the figures; biotinylated with EZ-Link NHS-Biotin for SPR
Consider B2, for which, in data set [12], the stoichiometry N was determined as 1. The same molecule returned a percent of NKp30 Stalk T oligomers accessible in data set [13] of 60 to 70%.

B3: wild-type B7-H6 extracellular portion (with the odd cysteine Cys212) (domain or fragment, UniProt Q68D85 25-245, looked up)
chain: DLKVEMMAGGTQITPLNDNVTIFCNIFYSQPLNITSMGITWFWKSLTFDKEVKVFEFFGDHQEAFRPGAIVSPWRLKSGDASLRLPGIQLEEAGEYRCEVVVTPLKAQGTVQLEVVASPASRLLLDQVGMKENEDKYMCESSGFYPEAINITWEKQTQKFPHPIEISEDVITGPTIKNMDGTFNVTSCLKLNSSQEDPGTVYQCVVRHASLHTPLRSNFTL
modifications: N-glycosylated; disulfide bridges not linked correctly by mass spectrometry
notes: entire extracellular portion Asp25-Leu245 with two Ig-like domains; source: HEK293 cells, transient transfection, secreted, purified (IMAC, SEC); not shown: three amino acids left after cleavage of the secretion signal, N-terminal, kept
As for B3, the “stoichiometry N” value in data set [14] is 2 and 4.

B4: B7-H6: Endo F1 (protein)
parent chain: MTWRAAASTCAALLILLWALTTEGDLKVEMMAGGTQITPLNDNVTIFCNIFYSQPLNITSMGITWFWKSLTFDKEVKVFEFFGDHQEAFRPGAIVSPWRLKSGDASLRLPGIQLEEAGEYRCEVVVTPLKAQGTVQLEVVASPASRLLLDQVGMKENEDKYMCESSGFYPEAINITWEKQTQKFPHPIEISEDVITGPTIKNMDGTFNVTSCLKLNSSQEDPGTVYQCVVRHASLHTPLRSNFTLTAARHSLSETEKTDNFSIHWWPISFIGVGLVLLIVLIPWKKICNKSSSAYTPLKCILKHWNSFDTQTLKKEHLIFFCTRAWPSYQLQDGEAWPPEGSVNINTIQQLDVFCRQEGKWSEVPYVQAFFALRDNPDLCQCCRIDPALLTVTSGKSIDDNSTKSEKQTPREHSDAVPDAPILPVSPIWEPPPATTSTTPVLSSQPPTLLLPLQ
Turning to B4, in [15], the stability_or_folding result is listed as “decreases”.
